Data from patent US20040253247A1 (Genentech, published 2004).
Where no end group is shown, it is not given here.

T1: ovalbumin (UniProt P01012 2-386)
T1 sequence (looked up): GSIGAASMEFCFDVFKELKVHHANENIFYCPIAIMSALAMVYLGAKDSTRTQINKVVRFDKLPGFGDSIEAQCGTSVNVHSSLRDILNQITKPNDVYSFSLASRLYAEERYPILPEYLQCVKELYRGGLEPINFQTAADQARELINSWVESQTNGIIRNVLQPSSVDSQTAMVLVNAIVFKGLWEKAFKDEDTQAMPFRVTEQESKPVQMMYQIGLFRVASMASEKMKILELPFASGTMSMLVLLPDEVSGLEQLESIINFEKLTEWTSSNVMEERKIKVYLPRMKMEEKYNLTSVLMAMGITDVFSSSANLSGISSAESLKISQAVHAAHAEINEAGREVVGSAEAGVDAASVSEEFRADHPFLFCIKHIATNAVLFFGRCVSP

B1: phage clone AEADCAWHLGELVWCTKVEE (peptide)
peptide: AEADCAWHLGELVWCTKVEE
notes: M13/gIII phage display; ALA Scan on Phage
B2: phage clone WAADCAWHLGELVWCTKVEE (peptide)
peptide: WAADCAWHLGELVWCTKVEE
notes: as for B1
B3: phage clone WEADCAWHLGELVWCAKVEE (peptide)
peptide: WEADCAWHLGELVWCAKVEE
notes: as for B1
B4: phage clone WEADCAWHLGELVWCTKVAE (peptide)
peptide: WEADCAWHLGELVWCTKVAE
notes: as for B1
B5: phage clone WEADCAWHAGELVWCTKVEE (peptide)
peptide: WEADCAWHAGELVWCTKVEE
notes: as for B1
B6: phage clone WEADCAAHLGELVWCTKVEE (peptide)
peptide: WEADCAAHLGELVWCTKVEE
notes: as for B1
B7: phage clone WEAACSWHLGELVWCTKVEE (peptide)
peptide: WEAACSWHLGELVWCTKVEE
notes: as for B1
B8: phage clone WEADCAWHLGALVWCTKVEE (peptide)
peptide: WEADCAWHLGALVWCTKVEE
notes: as for B1
B9: phage clone WEADCAWHLGELVWCTAVEE (peptide)
peptide: WEADCAWHLGELVWCTAVEE
notes: as for B1
B10: phage clone WEAACAWHLGELVWCTKVEE (peptide)
peptide: WEAACAWHLGELVWCTKVEE
notes: as for B1
B11: phage clone WEADCAWHLAELVWCTKVEE (peptide)
peptide: WEADCAWHLAELVWCTKVEE
notes: as for B1
B12: phage clone WEADCAWHLGELAWCTKVEE (peptide)
peptide: WEADCAWHLGELAWCTKVEE
notes: as for B1
B13: phage clone WEADCAWALGELVWCTKVEE (peptide)
peptide: WEADCAWALGELVWCTKVEE
notes: as for B1
B14: phage clone WEADCAWHLGELVWCTKAEE (peptide)
peptide: WEADCAWHLGELVWCTKAEE
notes: as for B1
B15: phage clone WEADCAWHLGEAVWCTKVEE (peptide)
peptide: WEADCAWHLGEAVWCTKVEE
notes: as for B1
B16: phage clone WEPDCAWHLGELVWCTKVEE (peptide)
peptide: WEPDCAWHLGELVWCTKVEE
notes: as for B1
B17: phage clone WEADCAWHLGELVACTKVEE (peptide)
peptide: WEADCAWHLGELVACTKVEE
notes: as for B1
B18: RB-R8 (peptide)
peptide: QGLIGDICLPRWGCLWGDSV
modifications: not fully specified (bridges); printed as Gln-Gly-Leu-Ile-Gly-Asp-Ile-Cys-Leu-Pro-Arg-Trp-Gly-Cys-Leu-Trp-Gly-Asp-Ser-Val; cysteine pairing not given here
notes: phage clone, Library RB
B19: RB-B8 (peptide)
peptide: HSQMEDICLPRWGCLWGDEL
modifications: not fully specified (bridges); cysteine pairing not given here
notes: phage clone, Library RB
B20: RB-H1 (peptide)
peptide: QRHPEDICLPRWGCLWGDDD
modifications: not fully specified (bridges); cysteine pairing not given here
notes: phage clone, Library RB
B21: phage clone RVADCAWHMGELVWCSELEV (peptide)
peptide: RVADCAWHMGELVWCSELEV
notes: M13/gIII phage display; Secondary Optimization
B22: phage clone WVDCAYHLGELVWCSTFEE (peptide)
peptide: WVDCAYHLGELVWCSTFEE
notes: M13/gIII phage display; Secondary Optimization; printed with 19 residues
B23: phage clone EQADCAWHLGELVWCTPMVF (peptide)
peptide: EQADCAWHLGELVWCTPMVF
notes: as for B21
B24: phage clone DLADCSWHLGELVWCSRVEG (peptide)
peptide: DLADCSWHLGELVWCSRVEG
notes: M13/gIII phage display; Designed Clones
B25: phage clone DLADCSYWLGELVWCSRVEG (peptide)
peptide: DLADCSYWLGELVWCSRVEG
notes: M13/gIII phage display; Focused Libraries
B26: phage clone GEEDCAWHLGELVWCTDVED (peptide)
peptide: GEEDCAWHLGELVWCTDVED
notes: as for B21
B27: phage clone GEQDCSYHMGELVWCTTVDG (peptide)
peptide: GEQDCSYHMGELVWCTTVDG
notes: as for B21
B28: phage clone DLADCSWHLGELVWCVGLDE (peptide)
peptide: DLADCSWHLGELVWCVGLDE
notes: as for B24
B29: phage clone KEASCAWHLGELVWCSEVEE (peptide)
peptide: KEASCAWHLGELVWCSEVEE
notes: as for B21
B30: phage clone EEASCAYHLGELVWCDAFDV (peptide)
peptide: EEASCAYHLGELVWCDAFDV
notes: as for B21
B31: phage clone KEADCAWHMGELVWCSEMEG (peptide)
peptide: KEADCAWHMGELVWCSEMEG
notes: as for B21
B32: phage clone WVEDCSWHLGELVWCVGLDF (peptide)
peptide: WVEDCSWHLGELVWCVGLDF
notes: as for B24
B33: phage clone KEADCAWHLGELVWCVAGVE (peptide)
peptide: KEADCAWHLGELVWCVAGVE
notes: as for B25
B34: phage clone KEASCSYWLGELVWCSPGVE (peptide)
peptide: KEASCSYWLGELVWCSPGVE
notes: as for B25
B35: phage clone KEASCSYHLGELVWCVAGVE (peptide)
peptide: KEASCSYHLGELVWCVAGVE
notes: as for B25
B36: phage clone KEASCSYWLGELVWCTEGVE (peptide)
peptide: KEASCSYWLGELVWCTEGVE
notes: as for B25
B37: phage clone KEASCSWHLGELVWCVAGVE (peptide)
peptide: KEASCSWHLGELVWCVAGVE
notes: as for B25
B38: phage clone GVRNCAYHLGELVWCTPMEF (peptide)
peptide: GVRNCAYHLGELVWCTPMEF
notes: as for B21
B39: phage clone KVADCAWHMGELVWCTEVEG (peptide)
peptide: KVADCAWHMGELVWCTEVEG
notes: as for B21
B40: phage clone GEPDCAWHLGELVWCTPMVF (peptide)
peptide: GEPDCAWHLGELVWCTPMVF
notes: as for B21
B41: phage clone GEEDCSYHLGELVMCTELDD (peptide)
peptide: GEEDCSYHLGELVMCTELDD
notes: as for B21
B42: phage clone EVEDCAYHLGELVWCSDLEG (peptide)
peptide: EVEDCAYHLGELVWCSDLEG
notes: as for B21
B43: phage clone WVEDCSWHMGELVWCDGGEF (peptide)
peptide: WVEDCSWHMGELVWCDGGEF
notes: as for B25
B44: phage clone GEADCSYHLGELVWCNDFEE (peptide)
peptide: GEADCSYHLGELVWCNDFEE
notes: as for B21
B45: phage clone RVEDCAYHLGELVWCTEGDE (peptide)
peptide: RVEDCAYHLGELVWCTEGDE
notes: as for B21
B46: phage clone GEEDCAWHLGELVWCSGGDF (peptide)
peptide: GEEDCAWHLGELVWCSGGDF
notes: as for B21
B47: phage clone READCAWHLGELVWCSERDL (peptide)
peptide: READCAWHLGELVWCSERDL
notes: as for B21
B48: phage clone KEASCSYWLGELVWCDGLDE (peptide)
peptide: KEASCSYWLGELVWCDGLDE
notes: as for B25
B49: phage clone KEASCSYWLGELVWCDTFDE (peptide)
peptide: KEASCSYWLGELVWCDTFDE
notes: as for B25
B50: phage clone KEASCSYWLGELVWCVGLDE (peptide)
peptide: KEASCSYWLGELVWCVGLDE
notes: as for B25
B51: phage clone EEPDCSWHLGELVMCTPMEV (peptide)
peptide: EEPDCSWHLGELVMCTPMEV
notes: as for B21
B52: phage clone EEPDCSWHLGELVWCTPIEV (peptide)
peptide: EEPDCSWHLGELVWCTPIEV
notes: as for B21
B53: phage clone KEARCWYWHGELVWCSDPEE (peptide)
peptide: KEARCWYWHGELVWCSDPEE
notes: as for B25
B54: phage clone GEADCAWHLGELVWCTKVEE (peptide)
peptide: GEADCAWHLGELVWCTKVEE
notes: as for B21
B55: phage clone WVEDCAWHMGELVWCTKVDE (peptide)
peptide: WVEDCAWHMGELVWCTKVDE
notes: as for B21
B56: phage clone GEASCAYHLGELVWCDEGEG (peptide)
peptide: GEASCAYHLGELVWCDEGEG
notes: as for B21
B57: phage clone WEEDCAWHLGELVWCAEFDE (peptide)
peptide: WEEDCAWHLGELVWCAEFDE
notes: as for B21
B58: phage clone EVADCSWHLGELVWCTEGEF (peptide)
peptide: EVADCSWHLGELVWCTEGEF
notes: as for B21

Target: T2, IgG-Fc (UniProt P01857-1 108-330 = IgG part, limits assumed)
T2 construct: domain: IgG-Fc; also called biotinylated-IgG-Fc; biotin-IgG-Fc
Assay: phage ELISA, M13/gIII display, ALA scan

Row | Binder | EC50 [nM]
1 | B1 | 20
2 | B2 | 34
3 | B3 | 101
4 | B4 | 4
5 | B5 | 56
6 | B6 | 798
7 | B7 | 10
8 | B8 | 11
9 | B9 | 10
10 | B10 | 55
11 | B11 | 12
12 | B12 | 4670
13 | B13 | 139
14 | B14 | 8
15 | B15 | 1890
16 | B16 | 36
17 | B17 | 3380

Target: T1, ovalbumin
Assay: phage ELISA, photograph of the plate

Row | Binder | binding result
18 | B18 | no binding
19 | B19 | no binding
20 | B20 | no binding

Target: T2, IgG-Fc
Assay: phage ELISA, M13/gIII display

Row | Binder | EC50 [nM]
21 | B21 | 44
22 | B22 | 9
23 | B23 | 8
24 | B24 | 9
25 | B25 | 776
26 | B26 | 52
27 | B27 | 210
28 | B28 | 28
29 | B29 | 130
30 | B30 | 77
31 | B31 | 66
32 | B32 | 31
33 | B33 | 138
34 | B34 | 734
35 | B35 | 416
36 | B36 | 818
37 | B37 | 225
38 | B38 | 10
39 | B39 | 23

Row | Binder | EC50 [nM]
40 | B40 | 7
41 | B41 | 69
42 | B42 | 82
43 | B43 | 139
44 | B44 | 156
45 | B45 | 63
46 | B46 | 100
47 | B47 | 47
48 | B48 | 326
49 | B49 | 301
50 | B50 | 278
51 | B51 | 14
52 | B52 | 15
53 | B53 | 809
54 | B54 | 38
55 | B55 | 70
56 | B56 | 386
57 | B57 | 44
58 | B58 | 54
